# According to patent US20040091964A1, “Modified proteins, isolated novel peptides,and uses thereof” (priority 2003, published 2004):
# Entries after “also recorded” stand apart in the source; their conditions may differ.
# B1: modified MRP4 polypeptide: modified human MRP4 polypeptide lacking the T-K-F motif (terminal 3 amino acids deleted) (protein, listed as Homo sapiens)
# chain: MLPVYQEVKPNPLQDANLCSRVFFWWLNPLFKIGHKRRLEEDDMYSVLPEDRSQHLGEELQGFWDKEVLRAENDAQKPSLTRAIIKCYWKSYLVLGIFTLIEESAKVIQPIFLGKIINYFENYDPMDSVALNTAYAYATVLTFCTLILAILHHLYFYHVQCAGMRLRVAMCHMIYRKALRLSNMAMGKTTTGQIVNLLSNDVNKFDQVTVFLHFLWAGPLQAIAVTALLWMEIGISCLAGMAVLIILLPLQSCFGKLFSSLRSKTATFTDARIRTMNEVITGIRIIKMYAWEKSFSNLITNLRKKEISKILRSSCLRGMNLASFFSASKIIVFVTFTTYVLLGSVITASRVFVAVTLYGAVRLTVTLFFPSAIERVSEAIVSIRRIQTFLLLDEISQRNRQLPSDGKKMVHVQDFTAFWDKASETPTLQGLSFTVRPGELLAVVGPVGAGKSSLLSAVLGELAPSHGLVSVHGRIAYVSQQPWVFSGTLRSNILFGKKYEKERYEKVIKACALKKDLQLLEDGDLTVIGDRGTTLSGGQKARVNLARAVYQDADIYLLDDPLSAVDAEVSRHLFELCICQILHEKITILVTHQLQYLKAASQILILKDGKMVQKGTYTEFLKSGIDFGSLLKKDNEESEQPPVPGTPTLRNRTFSESSVWSQQSSRPSLKDGALESQDTENVPVTLSEENRSEGKVGFQAYKNYFRAGAHWIVFIFLILLNTAAQVAYVLQDWWLSYWANKQSMLNVTVNGGGNVTEKLDLNWYLGIYSGLTVATVLFGIARSLLVFYVLVNSSQTLHNKMFESILKAPVLFFDRNPIGRILNRFSKDIGHLDDLLPLTFLDFIQTLLQVVGVVSVAVAVIPWIAIPLVPLGIIFIFLRRYFLETSRDVKRLESTTRSPVFSHLSSSLQGLWTIRAYKAEERCQELFDAHQDLHSEAWFLFLTTSRWFAVRLDAICAMFVIIVAFGSLILAKTLDAGQVGLALSYALTLMGMFQWCVRQSAEVENMMISVERVIEYTDLEKEAPWEYQKRPPPAWPHEGVIIFDNVNFMYSPGGPLVLKHLTALIKSQEKVGIVGRTGAGKSSLISALFRLSEPEGKIWIDKILTTEIGLHDLRKKMSIIPQEPVLFTGTMRKNLDPFNEHTDEELWNALQEVQLKETIEDLPGKMDTELAESGSNFSVGQRQLVCLARAILRKNQILIIDEATANVDPRTDELIQKKIREKFAHCTVLTIAHRLNTIIDSDKIMVLDSGRLKEYDEPYVLLQNKESLFYKMVQQLGKAEAAALTETAKQVYFKRNYPHIGHTDHMVTNTSNGQPSTLTIFE
# Legend:
# MDCK cells = experiment: Localization of GFP fusion proteins in polarized MDCK cells by confocal microscopy; type: cell-based, canine; settings: GFP fusion protein, confluent MDCK cells on Transwell membranes
# Method: The cMOAT-gfp and MRP1-gfp constructs supra (1 μg of DNA per transfection) were separately transfected into MDCK cells and L1210 cells using a UpofectAMINE transfection kit (Life Technologies, Inc.). Transfections of MDCK cells were carried out using Transwell plates (Costar, 24 mm×3 μm polycarbonate membrane) to enable cell polarization. Cells were imaged using a NikonTE300 inverted microscope linked to a Radiance 2000 Laser Scanning System for confocal microscopy and Lasersharp 2000 imaging software (Bio-Rad).
# To conveniently detect the localization of the proteins under investigation, GFP fusion proteins were produced and their localization visualized using confocal microscopy to visualize the fluorescent product, as described supra. […]
# L1210 cells [1] = experiment: 2,4-Dinitrophenyl glutathione (DNP-GS) transport from L1210 cells; type: cell-based, mouse; settings: L1210 cells expressing the protein, compared with control L1210 cells; spectrophotometry
# Excerpt: DNP-GS was generated in L1210 cells by exposure to 1-chloro-2,4-dinitrobenzene and its efflux determined as described previously (Olive et al., (1994) Biochim. Biophys. Acta 1224, 264-268).
# L1210 cells [2] = experiment: [3H]paclitaxel transport from L1210 cells expressing modified MDR3; type: cell-based, mouse; settings: L1210 cells stably expressing the polypeptide without GFP tag, compared to control L1210 cells
# Method: The transport of [^3H]paclitaxel is determined from L1210 cells expressing the modified MDR3 polypeptide and compared to the efflux of [^3H]paclitaxel from control L1210 cells not ectopically expressing any MDR3 polypeptide.
# L1210 cells [3] = experiment: Survival of L1210 cells in the presence of Busulfan; type: cell-based, mouse; settings: versus non-transfected L1210 cells or L1210 cells expressing native cMOAT
# Method: Accordingly, the ability of modified cMOAT polypeptides to confer resistance to Busulfan was determined in L1210 cells. In particular, the ΔcMOAT polypeptide having the amino acid sequence set forth in SEQ ID NO: 4, was expressed in L1210 cells as described in Example 1. The transfected cells were exposed to a range of concentrations of Busulfan. The survival of wild type L1210 cells, and transfected L1210 cells expressing either native cMOAT or ΔcMOAT, was determined in the presence of Busulfan. Survival was also assessed relative to the growth of cells that had not been exposed to Busulfan. Cell growth and survival were assayed using standard procedures (Denizot et al (1986), J. Immunol. Methods 89, 271-277).
# L1210 cells [4] = experiment: 6-mercaptopurine transport (6-thio-IMP efflux) from L1210 cells expressing modified MRP4; type: cell-based, mouse; settings: L1210 cells stably expressing the polypeptide without GFP tag, compared to control L1210 cells or L1210 cells expressing native MRP4
# Method: Radiolabeled 6-mercaptopurine is added to L1210 cells expressing the modified MRP4 polypeptide and the efflux of 6-thio-IMP compared to the efflux of 6-thio-IMP from L1210 cells expressing native MRP4, or alternatively, the efflux of 6-thio-IMP from control L1210 cells not ectopically expressing any MRP4 polypeptide.
molecule,measurement,setting,value
"F1545A: modified cMOAT polypeptide with Phe1545 mutated to alanine, tested as cMOAT-gfp fusion",membrane localization in polarized MDCK cells,MDCK cells,did not exhibit modified localization; also recorded: did not alter normal targeting; also recorded: same localization as the native protein
"S1542A: modified cMOAT polypeptide with Ser1542 mutated to alanine, tested as cMOAT-gfp fusion",membrane localization in polarized MDCK cells,MDCK cells,fluorescence appears to be in sub-membrane vesicles
"T1543A: modified cMOAT polypeptide with Thr1543 mutated to alanine, tested as cMOAT-gfp fusion",membrane localization in polarized MDCK cells,MDCK cells,both apical and basolateral targeting with an increase in protein accumulation in intracellular vesicles; also recorded: non-polarized distribution
cMOAT: native human canalicular multispecific organic anion transporter (MRP2) [reference compound],efflux of DNP-GS into the supernatant,L1210 cells [1],little evidence for the transport of DNP-GS; also recorded: minimal; also recorded: same rate of efflux
modified MDR3 polypeptide: modified human MDR3 polypeptide lacking the T-K-F motif (terminal 4 amino acids deleted),efflux of [3H]paclitaxel,L1210 cells [2],significantly higher efflux
"ΔcMOAT: modified human cMOAT polypeptide wherein the C-terminal T-K-F motif was deleted, without a GFP tag",resistance to Busulfan conferred on L1210 cells,L1210 cells [3],significantly enhanced resistance to Busulfan
same,efflux of DNP-GS into the supernatant,L1210 cells [1],"significantly higher efflux; also recorded: transport 2,4-dinitrophenyl glutathione; also recorded: increased transport"
B1,efflux of 6-thio-IMP,L1210 cells [4],significantly higher efflux
